T1: hActivin RIA/ALK-2 Fc Chimera (TPP-17233) (human, UniProt Q04771 23-123)
T1 construct: also called human ALK-2-Fc
T1 sequence: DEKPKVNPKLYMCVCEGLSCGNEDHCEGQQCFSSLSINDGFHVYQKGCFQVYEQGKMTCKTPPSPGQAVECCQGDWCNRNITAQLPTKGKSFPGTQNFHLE


Columns and labels:
[1] = target: T2, BMPR-2-FcHis6 (TPP-11725) (human); assay: SPR, Biacore T200, antigen amine-coupled to the chip, antibody injected at 1.56-200 nM, 1:1 Langmuir fit, 25 C
T2 construct: also called human BMPR-2
Procedure: (§1) SPR experiments for quantitative binding analyses were performed using a Biacore T200 instrument (GE Healthcare Biacore, Inc.) equipped with Series S Sensor Chips CMS (GE Healthcare Biacore, Inc.). Binding assays were carried out at 25° C. with assay buffer HBS-EP+ (10 mM HEPES pH 7.4, 150 mM NaCl, 3 mM EDTA, 0.05% Surfactant P20). Antigens were covalently immobilized to the chip surface via amine coupling chemistry. The same proteins that had previously been used to isolate the antibodies of the invention during panning and screening [murine ALK-1-Fc SEQ ID NO: 114, human ALK-1-Fc SEQ ID NO: 116, as well as BMPR-2-Fc SEQ ID NO: 115 (human and murine extracellular are identical)] were used here as […] to determine KD values. Reagents for amine coupling (1-ethyl-3-(3-dimethylaminopropyl) carbodiimide hydrochloride (EDC), N-hydroxysuccinimide (NHS), ethanolamine-HCl pH 8.5) were used from the Amine Coupling Kit (GE Healthcare, product code BR-1000-50). The sensor chip surface was activated with a freshly prepared solution of 0.2 M EDC and 0.05 M NHS passed over the chip surface for 420 seconds at a flow rate of 10 μl/min, followed by an injection of antigen (dissolved to 0.5 μg/ml in immobilization buffer, 10 mM sodium acetate pH 5.0) with a target level of 50 RU. Excess of activated groups were blocked with a 1 molar solution of ethanolamine injected at a flow rate of 10 μl/min for 420 seconds.
(§2) The sensor surface was regenerated for 20 seconds with regeneration solution (glycine-HCl pH 1.5) after each assay cycle consisting of a single analyte injection.
(§3) Obtained sensorgrams were double-referenced, (reference cell correction followed by buffer sample subtraction). KD values were calculated based on the ratio of dissociation (kd) and association (kₐ) rate constants which were obtained by globally fitting sensorgrams with a first order 1:1 Langmuir binding model, implemented in the Biacore Evaluation Software Package (Biacore T200 Evaluation Software Version 2.0, GE Healthcare Biacore, Inc.).

[2] = target: T3, murine ALK-1-Fc (TPP-11724) (murine); assay: as above
T3 construct: also called mouse ALK-1
T3 sequence (chain, as listed by the source limits assumed): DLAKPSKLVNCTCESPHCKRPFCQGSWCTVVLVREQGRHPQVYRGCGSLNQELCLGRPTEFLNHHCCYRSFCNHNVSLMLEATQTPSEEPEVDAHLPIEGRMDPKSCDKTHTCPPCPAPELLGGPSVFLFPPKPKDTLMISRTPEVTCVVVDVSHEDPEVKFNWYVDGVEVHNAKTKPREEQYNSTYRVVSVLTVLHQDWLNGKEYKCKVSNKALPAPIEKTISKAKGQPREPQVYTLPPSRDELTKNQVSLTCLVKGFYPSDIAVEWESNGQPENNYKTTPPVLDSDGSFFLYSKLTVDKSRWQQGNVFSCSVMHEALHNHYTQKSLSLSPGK
Procedure: as §1, §2, §3

[3] = target: T4, human ALK-1-Fc (TPP-11726) (human); assay: as above
T4 construct: Used for panning, screening and SPR; also called hALK-1-Fc
T4 sequence (chain, as listed by the source limits assumed): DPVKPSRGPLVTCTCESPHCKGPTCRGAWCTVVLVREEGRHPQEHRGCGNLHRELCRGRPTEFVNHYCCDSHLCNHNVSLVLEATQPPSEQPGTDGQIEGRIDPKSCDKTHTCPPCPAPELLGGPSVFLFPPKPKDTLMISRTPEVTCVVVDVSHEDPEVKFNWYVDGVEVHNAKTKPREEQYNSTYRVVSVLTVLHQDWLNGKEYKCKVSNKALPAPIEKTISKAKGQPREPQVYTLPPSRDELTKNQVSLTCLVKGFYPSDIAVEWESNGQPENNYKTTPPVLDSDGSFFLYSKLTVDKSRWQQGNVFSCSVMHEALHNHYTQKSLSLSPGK
Procedure: as §1, §2, §3

[4] = target: T4, human ALK-1-Fc (TPP-11726); assay: ELISA: human ALK-1-Fc coated at 2 µg/ml, TPP-14696 titrated, detected with anti-human IgG2 (Fc specific) then anti-mouse IgG-HRP; readout Relative Fluorescence Units
Procedure: (§4) Antigens human ALK-1-Fc and human ALK-2-Fc were coated at 2 μg/ml and binding of TPP-14696 and TPP-14719 was detected by anti-human IgG2 (Fc specific) antibody (Sigma 19513) followed by anti-mouse IgG (whole molecule)—HRP (Sigma A9044, 1:40000).
(§5) In order to determine the selectivity for the ALK-1/BMPR-2 receptor complex compared to the ALK-2/BMPR-2 receptor, the specificity of the agonistic antibodies has been evaluated by ELISA (FIG. 9). The antigens human ALK-1-Fc and human ALK-2-Fc were coated at 2 μg/ml and binding of TPP-14696 and TPP-14719 was detected by anti-human IgG2 (Fc specific) antibody (Sigma 19513) followed by anti-mouse IgG (whole molecule)—HRP (Sigma A9044, 1:40000).

[5] = target: ALK-1/BMPR-2 receptor pair on PathHunter U2OS ALK-1/BMPR-2 dimerization cells (DiscoverX 93-0962C3) (UniProt P37023 22-503; Q13873 27-1038); assay: cell-based or functional assay
Sequence of ALK-1/BMPR-2 receptor pair on PathHunter U2OS ALK-1/BMPR-2 dimerization cells (DiscoverX 93-0962C3) (P37023 22-503, chain 1 of 2): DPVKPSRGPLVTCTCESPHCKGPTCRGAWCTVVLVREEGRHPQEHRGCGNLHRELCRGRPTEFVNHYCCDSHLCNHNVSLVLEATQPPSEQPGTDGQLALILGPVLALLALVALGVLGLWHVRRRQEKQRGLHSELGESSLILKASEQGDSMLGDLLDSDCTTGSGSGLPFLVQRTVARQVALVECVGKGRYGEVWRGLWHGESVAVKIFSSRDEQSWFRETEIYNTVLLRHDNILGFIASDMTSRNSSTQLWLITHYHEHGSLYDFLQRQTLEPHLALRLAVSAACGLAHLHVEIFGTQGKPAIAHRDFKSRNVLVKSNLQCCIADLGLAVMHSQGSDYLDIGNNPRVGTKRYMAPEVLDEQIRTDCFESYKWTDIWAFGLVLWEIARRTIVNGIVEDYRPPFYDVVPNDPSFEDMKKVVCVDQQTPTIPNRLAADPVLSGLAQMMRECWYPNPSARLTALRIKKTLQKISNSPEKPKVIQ
Sequence of ALK-1/BMPR-2 receptor pair on PathHunter U2OS ALK-1/BMPR-2 dimerization cells (DiscoverX 93-0962C3) (Q13873 27-1038, chain 2 of 2): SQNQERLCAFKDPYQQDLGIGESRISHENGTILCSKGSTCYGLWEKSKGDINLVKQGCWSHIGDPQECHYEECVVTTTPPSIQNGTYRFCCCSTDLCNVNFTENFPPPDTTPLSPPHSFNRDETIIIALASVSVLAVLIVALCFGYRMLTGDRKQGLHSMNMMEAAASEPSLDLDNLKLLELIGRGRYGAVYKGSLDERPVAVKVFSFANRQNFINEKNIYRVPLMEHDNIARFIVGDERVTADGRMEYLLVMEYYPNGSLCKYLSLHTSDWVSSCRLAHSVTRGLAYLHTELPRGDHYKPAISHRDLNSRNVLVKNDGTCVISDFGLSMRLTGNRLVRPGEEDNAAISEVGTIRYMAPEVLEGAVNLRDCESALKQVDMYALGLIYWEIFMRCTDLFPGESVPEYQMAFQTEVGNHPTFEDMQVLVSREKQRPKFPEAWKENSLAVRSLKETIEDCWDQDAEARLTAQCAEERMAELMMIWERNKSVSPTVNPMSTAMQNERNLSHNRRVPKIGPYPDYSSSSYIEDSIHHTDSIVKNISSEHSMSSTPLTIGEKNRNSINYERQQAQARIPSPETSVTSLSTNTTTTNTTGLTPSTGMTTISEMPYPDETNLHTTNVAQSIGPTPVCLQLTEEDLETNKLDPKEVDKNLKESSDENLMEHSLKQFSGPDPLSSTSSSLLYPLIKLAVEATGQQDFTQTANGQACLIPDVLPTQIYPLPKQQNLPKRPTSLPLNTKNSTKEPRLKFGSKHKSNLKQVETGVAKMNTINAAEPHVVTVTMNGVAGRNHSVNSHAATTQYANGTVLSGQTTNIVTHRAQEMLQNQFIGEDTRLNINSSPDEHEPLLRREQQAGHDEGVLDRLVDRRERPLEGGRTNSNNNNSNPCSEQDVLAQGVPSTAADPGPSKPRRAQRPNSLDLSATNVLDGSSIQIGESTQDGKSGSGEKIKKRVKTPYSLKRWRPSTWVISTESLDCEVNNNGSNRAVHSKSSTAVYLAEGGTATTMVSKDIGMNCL

[6] = target: T1, hActivin RIA/ALK-2 Fc Chimera …; assay: ELISA: human ALK-2-Fc coated at 2 µg/ml, TPP-14696 titrated, detected with anti-human IgG2 (Fc specific) then anti-mouse IgG-HRP; readout Relative Fluorescence Units
Procedure: as §4, §5

T2 sequence (chain, as listed by the source limits assumed): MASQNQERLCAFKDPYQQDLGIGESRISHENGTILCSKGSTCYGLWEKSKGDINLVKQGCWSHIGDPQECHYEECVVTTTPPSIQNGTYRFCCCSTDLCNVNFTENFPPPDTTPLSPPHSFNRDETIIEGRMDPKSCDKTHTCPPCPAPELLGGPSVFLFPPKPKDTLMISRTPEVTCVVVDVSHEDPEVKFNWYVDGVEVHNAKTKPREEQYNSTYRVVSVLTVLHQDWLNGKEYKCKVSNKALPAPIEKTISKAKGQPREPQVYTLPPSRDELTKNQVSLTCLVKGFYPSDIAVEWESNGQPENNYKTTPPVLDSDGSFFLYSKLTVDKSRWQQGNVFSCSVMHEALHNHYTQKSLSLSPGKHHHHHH

| Kd [1] [nM] | Kd [2] [nM] | Kd [3] [nM] | Binder | further results |
| --- | --- | --- | --- | --- |
| 6.2 |  |  | TPP-13469 (484A-M010-C06-scFv-Fc-hIgG2) (Fc fusion, Monospecific antibody (MsAB) against BMPR-2; the construct name says scFv-Fc-hIgG2; not shown: human IgG2 Fc (and any linker), implied by the construct name scFv-Fc-hIgG2) EVQLLESGGGLVQPGGSLRLSCAASGFTFSDYYMTWIRQAPGKGLEWVSSISGGSTYYADSRKGRFTISRDNSENTLYLQMNSLRAEDTAVYYCARDFGVAGWFGQYGMDVWGQGTLVTVSSGGGGSGGGGSGGGGSQSVLTQPPSASGTPGQRVTISCTGSSSNIGAGYDVHWYQQLPGTAPKLLIYRSNQRPSGVPDRFSGSKSGTSASLAISGLRSEDEADYYCSSYAGNYNLVFGGGTKLTVLGGGGSGGGGSGGGGSGVECPPCPAPPVAGPSVFLFPPKPKDTLMISRTPEVTCVVVDVSHEDPEVQFNWYVDGVEVHNAKTKPREEQFNSTFRVVSVLTVVHQDWLNGKEYKCKVSNKGLPAPIEKTISKTKGQPREPQVYTLPPSREEMTKNQVSLTCLVKGFYPSDIAVEWESNGQPENNYKTTPPMLDSDGSFFLYSKLTVDKSRWQQGNVFSCSVMHEALHNHYTQKSLSLSPG |  |
|  | 25 | 8.5 | TPP-13660 (484A-M232-A14-scFv-Fc-hIgG2) (Fc fusion, Monospecific antibody (MsAB) against ALK-1; the construct name says scFv-Fc-hIgG2; not shown: human IgG2 Fc (and any linker), implied by the construct name scFv-Fc-hIgG2) EVQLLESGGGLVQPGGSLRLSCAASGFTFSSYAMSWVRQAPGKGLEWVANINQDGSEKNYVDSMRGRFTISRDNSKNTLYLQMNSLRAEDTAVYYCAREFDYWGQGTLVTVTSSGGGGSGGGGSGGGGSQSVLAQPPSASGTPGQRVTISCSGSSSNIGSNYVYWYQQLPGTAPKLLIYGNNKRPSGVPDRFSGSKSGTSASLAISGLRSEDEADYYCAAWDDSLNGRVFGGGTKLTVLGGGGSGGGGSGGGGSGVECPPCPAPPVAGPSVFLFPPKPKDTLMISRTPEVTCVVVDVSHEDPEVQFNWYVDGVEVHNAKTKPREEQFNSTFRVVSVLTVVHQDWLNGKEYKCKVSNKGLPAPIEKTISKTKGQPREPQVYTLPPSREEMTKNQVSLTCLVKGFYPSDIAVEWESNGQPENNYKTTPPMLDSDGSFFLYSKLTVDKSRWQQGNVFSCSVMHEALHNHYTQKSLSLSPG |  |
|  |  |  | TPP-14696 (13654-13667-scFv-kih-IgG2_Fc) (bispecific antibody, scFv-Fc (kih) heterodimer with IgG2 Fc; also called TPP-14669 (as printed in some places); BsAB TPP-14696) chain 1: EVQLLESGGGLVQPGGSLRLSCAASGFTFSIYAMSWVRQAPGKGLEWVSAISGSGGSTYYADSVKGRFTISRDNSKNTLYLQMNSLRAEDTAVYYCARDFDYWGQGTLVTVTSSGGGGSGGGGSGGGGSQSVLTQPPSASGTPGQRVTISCSGSSSNIGSNYVYWYQQLPGTAPKLLIYGNINRPSGVPDRFSGSKSGTSASLAISGLRSEDEADYYCAAWDDSLNGRVFGGGTKLTVLGGGGSGGGGSGGGGSGVECPPCPAPPVAGPSVFLFPPKPKDTLMISRTPEVTCVVVDVSHEDPEVQFNWYVDGVEVHNAKTKPREEQFNSTFRVVSVLTVVHQDWLNGKEYKCKVSNKGLPAPIEKTISKTKGQPREPQVYTLPPCREEMTKNQVSLWCLVKGFYPSDIAVEWESNGQPENNYKTTPPMLDSDGSFFLYSKLTVDKSRWQQGNVFSCSVMHEALHNHYTQKSLSLSPG chain 2: EVQLLESGGGLVQPGGSLRLSCAASGFTFSNAWMNWVRQAPGKGLEWVSSISSSSSYIYYADSVKGRFTISRDNSKNTLYLQMNSLRAEDTAVYYCARAVAAGGMFWGLDQWGQGTLVTVTSSGGGGSGGGGSGGGGSQSVLTQPPSASGTPGQRVTISCSGSRSNIGSNSVHWYQQLPGTAPKLLIYGNSNRPSGVPDRFSGSKSGTSASLAISGLRSEDEADYYCQSYDSSLNDHVVFGGGTKLTVLGGGGSGGGGSGGGGSGVECPPCPAPPVAGPSVFLFPPKPKDTLMISRTPEVTCVVVDVSHEDPEVQFNWYVDGVEVHNAKTKPREEQFNSTFRVVSVLTVVHQDWLNGKEYKCKVSNKGLPAPIEKTISKTKGQPREPQVCTLPPSREEMTKNQVSLSCAVKGFYPSDIAVEWESNGQPENNYKTTPPMLDSDGSFFLVSKLTVDKSRWQQGNVFSCSVMHEALHNHYTQKSLSLSPG | EC50 [4]: 1.01 nM; Agonistic activity in PathHunter U2OS cells EC50 [5]: 6.3 nM; binding result [6]: no binding |
| 8.8 |  |  | TPP-13667 (484A-M198-J22-scFv-Fc-hIgG2) (Fc fusion, Monospecific antibody (MsAB) against BMPR-2; the first row says hIgG2; not shown: human IgG2 Fc (and any linker), implied by the construct name scFv-Fc-hIgG2) EVQLLESGGGLVQPGGSLRLSCAASGFTFSNAWMNWVRQAPGKGLEWVSSISSSSSYIYYADSVKGRFTISRDNSKNTLYLQMNSLRAEDTAVYYCARAVAAGGMFWGLDQWGQGTLVTVTSSGGGGSGGGGSGGGGSQSVLTQPPSASGTPGQRVTISCSGSRSNIGSNSVHWYQQLPGTAPKLLIYGNSNRPSGVPDRFSGSKSGTSASLAISGLRSEDEADYYCQSYDSSLNDHVVFGGGTKLTVLGGGGSGGGGSGGGGSGVECPPCPAPPVAGPSVFLFPPKPKDTLMISRTPEVTCVVVDVSHEDPEVQFNWYVDGVEVHNAKTKPREEQFNSTFRVVSVLTVVHQDWLNGKEYKCKVSNKGLPAPIEKTISKTKGQPREPQVYTLPPSREEMTKNQVSLTCLVKGFYPSDIAVEWESNGQPENNYKTTPPMLDSDGSFFLYSKLTVDKSRWQQGNVFSCSVMHEALHNHYTQKSLSLSPG |  |
|  | 25 | 8.6 | TPP-13654 (484A-M233-M07-scFv-Fc-hIgG2) (Fc fusion, Monospecific antibody (MsAB) against ALK-1; the construct name says scFv-Fc-hIgG2; not shown: human IgG2 Fc (and any linker), implied by the construct name scFv-Fc-hIgG2) EVQLLESGGGLVQPGGSLRLSCAASGFTFSIYAMSWVRQAPGKGLEWVSAISGSGGSTYYADSVKGRFTISRDNSKNTLYLQMNSLRAEDTAVYYCARDFDYWGQGTLVTVTSSGGGGSGGGGSGGGGSQSVLTQPPSASGTPGQRVTISCSGSSSNIGSNYVYWYQQLPGTAPKLLIYGNINRPSGVPDRFSGSKSGTSASLAISGLRSEDEADYYCAAWDDSLNGRVFGGGTKLTVLGGGGSGGGGSGGGGSGVECPPCPAPPVAGPSVFLFPPKPKDTLMISRTPEVTCVVVDVSHEDPEVQFNWYVDGVEVHNAKTKPREEQFNSTFRVVSVLTVVHQDWLNGKEYKCKVSNKGLPAPIEKTISKTKGQPREPQVYTLPPSREEMTKNQVSLTCLVKGFYPSDIAVEWESNGQPENNYKTTPPMLDSDGSFFLYSKLTVDKSRWQQGNVFSCSVMHEALHNHYTQKSLSLSPG |  |

— patent US20220185901A1 (Bayer, published 2022)
